Laboratory results from US20230183305A1, “KERATIN BD-11, PREPARATION METHOD THEREFOR AND PHARMACEUTICAL COMPOSITION AND USE THEREOF” (INSTITUTE OF MATERIA MEDICA, CHINESE ACADEMY OF MEDICAL …, priority 2019, published 2023).

System: PTZ-induced epilepsy in ICR mice
Assay: Pentylenetetrazole (PTZ) induced epilepsy in mice
Type: in vivo, mouse
Set-up: mortality rate: unit not given here
Conditions: for Cases of deaths / Grade IV seizure rate / mortality rate / Cases of Grade IV: PTZ 65 mg/kg i.p., 10 mice; for Cases of Grade IV: 15 min observation; for Grade III seizure incubation period / Grade IV seizure incubation period: mean±SEM; for Grade IV seizure incubation period: no Grade IV recorded as maximum 900 s
Procedure: • Animals: male ICR mice; • Medicines: Pentylenetetrazol (PTZ), Retigabine, Protein BD-11.
Experiment grouping: • Model group; • Retigabine 60 mg/kg group; • Protein BD-11, 50 mg/kg group, 200 mg/kg group;
The drug was administered once in the afternoon the day before modeling, On the day of modeling, PTZ-65 mg/kg (modeling agent) was injected intraperitoneal 1 hour after the test drug was administered intragastrically, and the positive drug can be administered once half an hour before modeling. Continue to observe for 15 minutes after injection of PTZ.
Observation index: ①Seizure situation: the time of seizures from Grade III to […]; ②Death situation
Seizure grade: Refer to Racine grading standard: Grade 0: No response; Grade I: manifested as twitching of facial muscles or the corners of the mouth; Grade II: can nod; Grade III: twitching of one limb; Grade IV: rigidity or body twitching; Grade V: generalized epilepsy (generalized tonic seizures).
Count the cases of seizures and deaths in each group of mice in the experiment; Grade III and IV incubation period. The incubation period of mice that have not attacked to Grade IV is recorded as the maximum of 900 seconds. Chi-square test was used for statistics of the number of cases. Calculate the mean and standard error of the incubation period. Use TTEST to compare the model group with other groups, and P<0.05 is considered as a significant difference.

B1: BD-11: recombinant keratin, amino acid sequence SEQ ID NO:1, expressed in E. coli, band around 59 kD; Example 4 batch tested (protein, listed as Bos taurus)
chain: MSRQSTITFQTSSRRGFSTASATTPATSRSRFSSASVTHSPAGSGGLGRISGFGSRSLYNLGGTKRVSISGCGSNFRSGFGGRASSGFGVSGGFGYGGGIGGGHGGCGFSVCPPGGIQEVTVNQSLLTPLNLQIDPNIQRVRKEEREQIKTLNNKFASFIDKVRFLEQQNKVLETKWSLLQEQGTRTVRQSLEPFFEAYITDLRRQLDSITTERGRLDAELRTMQDVVEDFKVRYEDEINKRTAAENEFVALKKDVDAAYLNKVDLEAKANSLTDEINFLQMLFEAELCQMQTRVSDTSVVLSMDNNRSLDLDSIIAEVKAQYEEIANRSRAEAESWYQTKYEELQVTAGQHGDDLRNTKQEISETNRMIQRLRAEIDNVKKQCASLQTAIADAEQRGELALKDARAKLVDLEEALQKSKQDMARLLREYQELMNIKLALDVEIATYRKLLEGEECRLSGEGVSPVNISVVTSTVSSGYGGGSSIGSGSLGLSGGSGCSFMTSGGHSLGGSSFSNSSSRGLGGSGSSFKFVSTTSSSRKSYKH
In the case of B1, the Cases of deaths (BD-11 50 mg/kg intragastric) is reported as 0, the “Grade IV seizure rate” value (BD-11 50 mg/kg intragastric) is reported as 90% and the mortality rate (BD-11 50 mg/kg intragastric) is reported as 0. The “Cases of Grade IV” value (BD-11 50 mg/kg intragastric) was 9, the “Grade III seizure incubation period” value (BD-11 50 mg/kg, PTZ model) was 68 ± 5 s and the “Grade IV seizure incubation period” value (BD-11 50 mg/kg, PTZ model) was 203 ± 81 s. The “Incubation period of Grade III epilepsy, comparison with model group” value (BD-11 200 mg/kg dose group, PTZ model) was “significantly different from the model group”, the Cases of deaths (BD-11 200 mg/kg intragastric) was 0 and the “Grade IV seizure rate” value (BD-11 200 mg/kg intragastric) was 60%. For the same molecule, the mortality rate (BD-11 200 mg/kg intragastric) was 0, the “Cases of Grade IV” value (BD-11 200 mg/kg intragastric) was 6 and the “Grade III seizure incubation period” value (BD-11 200 mg/kg, PTZ model) was 94 ± 12 s. The “Grade IV seizure incubation period” value (BD-11 200 mg/kg, PTZ model) was 428 ± 130 s.
